Assay: yeast display, Sf9 membrane polyspecificity reagent, FACS + sequencing; frameworks hold sequencing errors
How it was run: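 A nanobody's polyreactivity label depends on the gate it was sorted from. Yeast display cells were stained with 10% biotinylated, detergent-solubilized Sf9 membrane reagent for 1 hour at 4 °C, enriched on streptavidin microbeads and sorted by FACS. The low and high (top ~1%) gates were set on anti-HA fluorescence for expression and streptavidin fluorescence for reagent binding.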

**Q.** For “QVQLVESGGGLVQAGGSLRLSCAASGFIFYYYAMGWYRQAPGKERELVAGIDKTGGSTYYADSVKGRFTISRDNAKNTVYFQMNSLKPEDTAVYYCAAGYFFPRLRFRNYAYVYWGQGTQVTVSS”, which “polyreactivity (PSR sort gate)” value is on record?
**A.** The value was “high polyreactivity”.

**Q.** Which “polyreactivity (PSR sort gate)” value does the source give for “QVQLVESGGGLVQAGGSLRLSCAASGFIFYYYAMGWYRQAPGKERELVAVLAVSGSSTYYADSEKGRFTISRDNAKNIVFLQKNSLKPEDTAVYYCNADFWPYTGKYDYWGQGTQVTVSS” here?
**A.** The value was “low polyreactivity”.

**Q.** With “QVQLVESGGGLVQAGGSLRLSCAASGFIFYYYAMGWYRQATGKERELDASISSDGSTYYADSVKGRFTISRDNAKNTVYLQMNSLKPEDTAVYYCNADRYYPDDLSDGVGTYDYWGQGTQVTVSS” as the sequence, how does the “polyreactivity (PSR sort gate)” value read?
**A.** Its value is “low polyreactivity”.

**Q.** For “QVQLVESGGGLVQAGGSLRLSCAASGFIIAQYAMGWYRQAPGKERELVAGITSTGSTNYADSVKGRFTISRDNAKNTVYLQMNSLKPEDTAVYYCNTDYITASAVFDYDYWGQDTQVTVSS”, which “polyreactivity (PSR sort gate)” value is on record?
**A.** Its value is “low polyreactivity”.

**Q.** Which “polyreactivity (PSR sort gate)” value does the source give for “QVQLVESGGGLVQAGGSLRLSCAASGFIIAYYAMGWYRQAPGKERELVAAISRRGGSTYYADSVKGRFTISRDNAKNTVYLQMNSLKPEDTAVYYCAKAHYLSDYNYWGQGTQVTVSS” here?
**A.** Its value is “high polyreactivity”.

**Q.** With “QVQLVESGGGLVQAGGSLRLSCAASGFIIGGYAMGWYRQAPGKERELVASITSGGRTYYADSVKGRFSISRDNAKNTVFLQMNSLKPEDTAVYDCAARQQTYYYKIYYWGQGSQVTVSS” as the sequence, how does the “polyreactivity (PSR sort gate)” value read?
**A.** The value was “high polyreactivity”.

**Q.** Which “polyreactivity (PSR sort gate)” value does the source give for “QVQLVESGGGLVQAGGSLRLSCAASGFIIGVNDMGWYRQPPGKERELVAAITSGGNTNYADSVKGRFTISRDNAKNTVYLQMNSLKPEDTAVYYCIVDTRLPMDYWGQGTQVTVSS” here?
**A.** The value was “low polyreactivity”.

**Q.** With “QVQLVESGGGLVQAGGSLRLSCAASGFIIPVYAMGWYRQAPGKERELVAAITYSGARTYYADSVKGRFTISRDNAKNTVYLQMNSLKPEDTAVYYCAAAPGYLKYSPGHYGYNYWGQGTQVTVSS” as the sequence, how does the “polyreactivity (PSR sort gate)” value read?
**A.** Its value is “high polyreactivity”.

**Q.** For “QVQLVESGGGLVQAGGSLRLSCAASGFIIYYNAMGWYRQAPGKEREFVAGISFSGDGRTYYADSVKGRFTISRDNAKNTVYLQMNSLKPEDTAVYYCAAPHRSRTHELDYWGQGTQVTVSS”, which “polyreactivity (PSR sort gate)” value is on record?
**A.** The value was “low polyreactivity”.

**Q.** Which “polyreactivity (PSR sort gate)” value does the source give for “QVQLVESGGGLVQAGGSLRLSCAASGFILGYNAMGWYRQAPGKERELVADITFSGGGTNYADSVKGRFTISRDNAKNSVYLQMNSLKPEDTAVYYCNAAAFSQLRVRYDYWGQGTQVTVSS” here?
**A.** The value was “low polyreactivity”.

**Q.** With “QVQLVESGGGLVQAGGSLRLSCAASGFILNQYAMGWYRQAPGKERELVAAISNGGSTNYADSVKGRFTISRDNAKNTVYLQMNSLKPEDTAVYYCAKDQSLTYSSVWGYDYWGQGTQVTVSS” as the sequence, how does the “polyreactivity (PSR sort gate)” value read?
**A.** Its value is “low polyreactivity”.

**Q.** Which “polyreactivity (PSR sort gate)” value does the source give for “QVQLVESGGGLVQAGGSLRLSCAASGFILQGYAMGWYRQAPGKERELVATITTSSRTYYADSVKGRFTISRDNAKNTVYLQMNRLKPEDTAVYYCDKSVYPYGYYYGQMDYWGQGTQVTVSS” here?
**A.** Its value is “high polyreactivity”.

**Q.** For “QVQLVESGGGLVQAGGSLRLSCAASGFILSPYAMGWYRQAPGKERELGAVITISGGSTYYADSVKGRFTISRDNAKNTVYLQMNSLKPEDTAVYYCAADYYDLVYDYYYWGQGTQVTVSS”, which “polyreactivity (PSR sort gate)” value is on record?
**A.** Its value is “high polyreactivity”.

**Q.** With “QVQLVESGGGLVQAGGSLRLSCAASGFILSRYTMGWYRQAPGKERELVATISSGGRTYYADSVKGRFTISRDNAKNTVYLQMNSLKPEDTAVYYCAAAYTYWRIPGNRYLYDYWGQGTQVTVSS” as the sequence, how does the “polyreactivity (PSR sort gate)” value read?
**A.** Its value is “high polyreactivity”.

**Q.** For “QVQLVESGGGLVQAGGSLRLSCAASGFILSRYTMGWYRQAPGKERELVATISSGGRTYYADSVKGRFTISRDNAKNTVYLQMNSLKPEDTAVYYCAAAYTYWRISGNRYLYDYWGQGTQVTVSS”, which “polyreactivity (PSR sort gate)” value is on record?
**A.** The value was “high polyreactivity”.

**Q.** For “QVQLVESGGGLVQAGGSLRLSCAASGFILVGYAMGWYRQARGKERELVAAITSGGTTSYADAVKGSFIISRDNAKNTVYLQMISLKPEESAVYYCAAVQWDSSSKYYYWGQGTQVTVSS”, which “polyreactivity (PSR sort gate)” value is on record?
**A.** The value was “low polyreactivity”.

**Q.** With “QVQLVESGGGLVQAGGSLRLSCAASGFILYFNAMGWYRQAPGKERELVAAITSDGGSTYYADSVKGRFTISRDNAKNTVYLQMNSLKPEDTAVYYCAADASTWYTEEYWGQGTQVTVSS” as the sequence, how does the “polyreactivity (PSR sort gate)” value read?
**A.** Its value is “low polyreactivity”.

**Q.** With “QVQLVESGGGLVQAGGSLRLSCAASGFILYFNAMGWYRQAPGKERELVAVISGTGVRTNYADSVKGRFTISRDNAKNTVYLQMYSLKPEDTAVYYCAAGYYSYRPRDYWGQGTQVTVSS” as the sequence, how does the “polyreactivity (PSR sort gate)” value read?
**A.** The value was “low polyreactivity”.

**Q.** Which “polyreactivity (PSR sort gate)” value does the source give for “QVQLVESGGGLVQAGGSLRLSCAASGFILYGNARGWYRQAPGKERELVAAISSSGRTNYADYVKGRFTISRDNAKNTVYLQMNRLKPEDTAVYYCADYVRAGYGMGYWGQGTQVTVSS” here?
**A.** The value was “low polyreactivity”.

**Q.** Which “polyreactivity (PSR sort gate)” value does the source give for “QVQLVESGGGLVQAGGSLRLSCAASGFILYYNAMGWYRQAPGKERELVADISRRGTSTYYADSVKGRFTISRDNAKNTVYLQMNRLKPEDTAVYYCKAVPSARTQPYNGWGQGTQVTVSS” here?
**A.** Its value is “high polyreactivity”.

**Q.** Which “polyreactivity (PSR sort gate)” value does the source give for “QVQLVESGGGLVQAGGSLRLSCAASGFILYYYAMGWYRQAPGKERELVAAISSGGNTDYADSVKGRFTISRDNAKNTVYLQMNSLKPEDTAVYYCAARGYHYSYLRGDTGYYYWGQGTQVTVSS” here?
**A.** Its value is “low polyreactivity”.

**Q.** Which “polyreactivity (PSR sort gate)” value does the source give for “QVQLVESGGGLVQAGGSLRLSCAASGFINSDYAMGWYRPAPGKERELVAVITWRSGSTYYADSVKGRFTISRDYAKNTVYLQMNSLKPEDTAVYYCAARNYRNYSQGRRLGYNDWGQGTQVTVTS” here?
**A.** Its value is “high polyreactivity”.

**Q.** For “QVQLVESGGGLVQAGGSLRLSCAASGFIQDLYVMGWYRQAPGKERELVAAISSVGSTYADSVKGRFTISRDNAKNTVYLQMNSLKPEDTAVYYCAKDGTDYDYNYWGQGTQVTVSS”, which “polyreactivity (PSR sort gate)” value is on record?
**A.** The value was “low polyreactivity”.

**Q.** For “QVQLVESGGGLVQAGGSLRLSCAASGFISDWYAMGWFRQAPGKERELVATIDWLGGSTYAHSVKGRFTISRDNAKNTVYLQMNSLKPEDTAVYYCAADSYFIAWYGAPYAYDYWGQGTQVTVSS”, which “polyreactivity (PSR sort gate)” value is on record?
**A.** Its value is “low polyreactivity”.

**Q.** Which “polyreactivity (PSR sort gate)” value does the source give for “QVQLVESGGGLVQAGGSLRLSCAASGFISPNAMGWYRQAPGKERELVAAISRSGGSTYYADSVKGRFTISRDNAKNTVYLQMNSLKTEDTAVYYCAAGRLYSYRRQYGYWGQGTQVTVSS” here?
**A.** The value was “high polyreactivity”.

**Q.** Which “polyreactivity (PSR sort gate)” value does the source give for “QVQLVESGGGLVQAGGSLRLSCAASGFISPQNTMGWYRQAPGKERELVAAITSGGSTYYADSVKGRFTISRDNAKNTVYLLMNSLKPEDTAVYYCASRPYGTWTYGYWGQGTQVTVSS” here?
**A.** Its value is “low polyreactivity”.

**Q.** With “QVQLVESGGGLVQAGGSLRLSCAASGFISSINAMGWYRQAPGKERELVAGIRARGTSTYYADSVKGRFTISRDNAKNTVYLQMNSLKPEDTAVYYCAADFTYQGSSANDYWGQGTQVTVSS” as the sequence, how does the “polyreactivity (PSR sort gate)” value read?
**A.** The value was “low polyreactivity”.

**Q.** For “QVQLVESGGGLVQAGGSLRLSCAASGFISSYYAMGWYRQAPGKERELVAAITSGGRTYYADSVKGRFTISRDNAKNTDYLQMNSLKPEDTAVYYCGKYSRTNAFDYWGQGTQVTVSS”, which “polyreactivity (PSR sort gate)” value is on record?
**A.** The value was “high polyreactivity”.

**Q.** Which “polyreactivity (PSR sort gate)” value does the source give for “QVQLVESGGGLVQAGGSLRLSCAASGFIVNVYAMVWYRQAPGKERELVAAISTSGSNTYYADSVKGRFTISLDNAKNTVYLQMNSLKPEDTAVYYCNAVRDRVRWHYYAVYYWGQGTQVTVSS” here?
**A.** Its value is “high polyreactivity”.

**Q.** For “QVQLVESGGGLVQAGGSLRLSCAASGFIVVFNAMGWYRQAPGKERELVAAINGGDITNYADSVKGRFTISRDNAKNTVYLQMNSLKPEDTAVYYCAADGEDSMWTGYDYDYWGQGTQVTVSS”, which “polyreactivity (PSR sort gate)” value is on record?
**A.** The value was “low polyreactivity”.

**Q.** With “QVQLVESGGGLVQAGGSLRLSCAASGFIWSYVMGWYRQAPGKERQLVAAISRSGGRTYYADSVKGRFTISRDNEKNTVYLQMNSLKPEDTAVYYCAKDGGWSRLHYNYWGQGTQVTVSS” as the sequence, how does the “polyreactivity (PSR sort gate)” value read?
**A.** Its value is “high polyreactivity”.

**Q.** For “QVQLVESGGGLVQAGGSLRLSCAASGFIYDYAMGWYRQAPGKEREFVARINWSGGSTYYADSVKGRFTISRDNAKNTVYLQMNSLKPEDTAVYYCATSGWAWRSSNPYEYWGQGTQVTVSS”, which “polyreactivity (PSR sort gate)” value is on record?
**A.** Its value is “low polyreactivity”.
